Test system: MS2 coat protein
Experiment: apparent KD of MS2 coat protein; designed switch direction (-1 OFF switch, 1 ON switch): -1; higher = weaker reporter binding
In short: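 SNAP-549-labelled MS2 coat protein was titrated, doubling from 0.7 or 1.5 nM to 3 µM, over designed RNA switches transcribed on Illumina chips by stalled E. coli RNA polymerase. Runs were done without input, with 200 uM small-molecule ligand, or with an oligonucleotide input. Apparent KD is the per-design median over clusters of curve-fitted normalised fluorescence.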

[1] = Eterna round: R95, input ligand: microRNA oligo, concentration not stated
[2] = Eterna round: R95, input ligand: FMN 200 uM
[3] = Eterna round: R95, input ligand: none
[4] = input ligand: microRNA oligo, concentration not stated

Sequence	apparent KD of MS2 coat protein [1] [nM]	apparent KD of MS2 coat protein (input ligand: FMN 200 uM) [nM]	apparent KD of MS2 coat protein (input ligand: none) [nM]	apparent KD of MS2 coat protein [2] [nM]	apparent KD of MS2 coat protein [3] [nM]	apparent KD of MS2 coat protein [4] [nM]
UUUUUACGAGGAUAUCGUUUUUUUCACAUGAGGAUCACCCAUGUUGUUUAUGUUUCGUUUCGAGAAGGCGUUUGUU [JR_E5_Sub065] (puzzle: Exclusion 5)	26.1	–	–	–	–	–
UAUGGUAAAGUCAGGAUAUACGUGCAGAAUUCUAGGUAGAAGGGACAUGAGGAUCACCCAUGUAUGGUAGUGUU [Ex4 #44] (Eterna round: R97, puzzle: Brourd's mod of Exclusion 4)	–	146	104	–	–	–
GAGAGCAACGUCAGGAUAUUUAACCAAAACGCGGUAGAGAAGGGACAUGAGGAUCACCCAUGUGACUUCGGGCA [Eternabot (L1) Solution 83] (Eterna round: R97, puzzle: Brourd's mod of Exclusion 4)	–	15.5	16.8	–	–	–
UAUUAACAAGUAAGAUCCCACAUGAGGAUCACCCAUGUGCUCGUCUUAUAAGGUACUGUGACGAAAGUCACGGUACC [Sensor 3, v1 - 87] (puzzle: Sensor v3, turn-off variant 1)	953	–	–	16.9	13	–
AGGGUUUGAGGAUAUAUCUGGUGGGACAUGAGGAUCACCCAUGUUCAUGUCGUAUCCUCAGUAGAAGGCAGACAGG [Eternabot (Original) Solution 14] (Eterna round: R97, puzzle: Exclusion 5)	–	13.2	13.4	–	–	–
GCCUCACUUGAGGAUCACCCAAGUCAGGAUAUCUACAAGCCGACCAUACCGGCUUGCAAGAGAAGGGACUCUAA [Esonreti] (Eterna round: R97, puzzle: Exclusion 1)	–	246	31.8	–	–	–
UAUUAGUGAGGAUAUGAGUCGUAGAACAAUAGUACUACGUCUCAGAAGGUACAUGAGGAUCACCCAUGUUUCUC [Fiskers Ex 4 Super Stable 44 mod 33] (puzzle: Exclusion 4)	18.8	–	–	–	–	–
GACGUGUUAGGAUAUAGCUCUCGGGACAGCAAUGAUCCGAGUUAGAAGGAACAUGAGGAUCACCCAUGUUAUUU [Eternabot (L2) Solution 60] (Eterna round: R97, puzzle: Exclusion 4)	–	18.4	21.1	–	–	–
CCAGGCGUCUUUGCUCGUCUUAUUUGGAGAGGACUGAUAACAUGAGGAUCACCCAUGUGUGUGGGAGCGUUGCAGUG [JR_SV3TOV2_Sub020] (puzzle: Sensor v3, turn-off variant 2)	161	–	–	86.3	116	–
GUCUGGCUAGGAUAUACAGUGUCCACAAGUUAGUUACCCUAACAUGAGGAUCACCCAUGUAGAAGGAGUGAGAA [Revebeed] (Eterna round: R96, puzzle: Exclusion 2)	–	355	45.4	–	–	34.7
CGGCGGGCAGGAUAUGGUAAUAAUUACAUGAGGAUCACCCAUGUGGAUAUAUGGGAAUAACCAGAAGGGCUUGUUG [-20.1, -20 kcal, A 30%] (Eterna round: R97, puzzle: Exclusion 5)	–	63.2	74.4	–	–	–
ACAAGCUCUGUGGGUGGGUACAUGAGGAUCACCCAUGUUUUGCUCGUCUUGUGGGCCCGGGCCCGCGGCCCGGGCCC [-41.4, -69.7, A 12%] (Eterna round: R97, puzzle: Sensor, turn-off variant 1)	–	604	1180	–	–	–
ACUCCAUAUGUGAGGAUAUGGAAAGAAAAUAAAAUCCAGAAGGCACAUGAGGAUCACCCAUGUACCGCAGGGAC [BmEX4 A.29] (Eterna round: R97, puzzle: Brourd's mod of Exclusion 4)	–	17.7	14.5	–	–	–
UGAGUGCUGCGAGGAUAUACAUGAGGAUCACCCAUGUAUACCUGUGAGGCUUUGCCUCACAGGUAGUAGAAGGCGCAGUACUCU [Mat - Exclusion NG 2 - Mod of JL - D44] (Eterna round: R96, puzzle: Exclusion NG 2)	–	13.1	12.8	–	–	9.11

From the supplement of paper PMC9170038
